# Like-named read-outs stand apart in the source and are kept apart here.
# B1: anti-CD4 chimeric antibody KM4045 (antibody, V domains shown)
# VH: EVQLVESGGGLVQPGRSMKLSCAASGFTFSNYGMAWVRQAPTKGLEWVATISYDGSITYYRDSVKGRFTISRDHAKSTLYLQMNSLRSEDTATYYCTREEQYSSWYFDFWGPGIMVTVSS
# VL: DIVLTQSPALAVSLGQRATISCRASQSVSISSHDLMQWYQQKPGQQPKLLIYDAFNLASGIPVRFSGSGSGTDFTLTIDPVQADDIATYYCQQSKDDPYTFGAGTKLELK
# notes: Variable regions of rat KM4065 joined to a '113F type' heavy chain constant region and a human kappa constant region; In the 113F type, part of the human IgG1 Fc is substituted with human IgG3 Fc (US2007/0148165); Expressed in FUT8 knockout CHO cells (0% fucose)
# Experiments:
# [1] = biological target: T1, recombinant human CD4 (catalogue number: 514-CD/CF, manufactured by R&D Systems) (human, UniProt P01730 26-390); assay: SPR, Biacore T100; antibody captured on anti-human IgG chip, recombinant human CD4 flowed; 1:1 binding model; value beyond the maker's measurable limit (1 × 10^-5)
# T1 construct: Bought protein (R&D Systems); also called recombinant CD4
# Description: (§1) In order to kinetically analyze the binding activity of anti-CD4 chimeric antibodies KM4045 to KM4049, 6G5-1 and 6G5-P to recombinant human CD4, the binding activity was measured by surface plasmon resonance method (SPR). All of the following manipulations were carried out using a Biacore T100 (manufactured by GE Healthcare Bio-Sciences). The anti-human IgG antibody was immobilized on a CM5 sensor chip (manufactured by GE Healthcare Bio-Sciences) by an amine coupling method using a Human Antibody Capture Kit (manufactured by GE Healthcare Bio-Sciences) in accordance with the protocols attached thereto. An assay sample (anti-CD4 chimeric antibodies KM4045 to KM4049) was added to be captured on the anti-human IgG antibody-immobilized chip to give 100 RU (resonance unit). Thereafter, the recombinant human CD4 (manufactured by R&D) diluted from 2500 ng/mL in five steps was allowed to run at a flow rate of 30 μL/min onto the chip, and the sensorgram corresponding to each concentration was obtained. The analysis was carried out in the 1:1 binding model using an analysis software attached to the apparatus, Biacore T100 Evaluation software (manufactured by Biacore), thereby calculating an association rate constant ka and a dissociation rate constant kd of respective antibodies for human CD4. […]
# [2] = biological target: T1, recombinant human CD4 (catalogue …); assay: SPR, Biacore T100; antibody captured on anti-human IgG chip, recombinant human CD4 flowed; 1:1 binding model; kd beyond the maker's measurable limit
# Description: as §1
# [3] = biological target: T1, recombinant human CD4 (catalogue …); assay: SPR, Biacore T100; antibody captured on anti-human IgG chip, recombinant human CD4 flowed; 1:1 binding model
# Description: (§2) In order to kinetically analyze the binding activity of anti-CD4 chimeric antibodies KM4045 to KM4049, 6G5-1 and 6G5-P to recombinant human CD4, the binding activity was measured by surface plasmon resonance method (SPR). All of the following manipulations were carried out using a Biacore T100 (manufactured by GE Healthcare Bio-Sciences). The anti-human IgG antibody was immobilized on a CM5 sensor chip (manufactured by GE Healthcare Bio-Sciences) by an amine coupling method using a Human Antibody Capture Kit (manufactured by GE Healthcare Bio-Sciences) in accordance with the protocols attached thereto. An assay sample (anti-CD4 chimeric antibodies KM4045 to KM4049) was added to be captured on the anti-human IgG antibody-immobilized chip to give 100 RU (resonance unit). Thereafter, the recombinant human CD4 (manufactured by R&D) diluted from 2500 ng/mL in five steps was allowed to run at a flow rate of 30 μL/min onto the chip, and the sensorgram corresponding to each concentration was obtained. The analysis was carried out in the 1:1 binding model using an analysis software attached to the apparatus, Biacore T100 Evaluation software (manufactured by Biacore), thereby calculating an association rate constant ka and a dissociation rate constant kd of respective antibodies for human CD4.
# The measurement of a binding activity was carried out according to the method described in Example 7(2). The association rate constant ka, the dissociation rate constant kd and the dissociation constant KD (kd/ka) of respective antibodies thus obtained are shown in Table 6.
# [4] = biological target: T1, recombinant human CD4 (catalogue …); assay: as above; remark: listed apart in the source
# Description: as §2
# As a result, an association rate constant ka, a dissociation rate constant kd, and a dissociation constant KD (kd/ka) of individual antibodies thus obtained are given in Table 5.
binder,measurement,setting,value
B1,koff,[1],< 1e-05 s⁻¹
same,Kd,[2],≤ 0.0824 pM
same,Kd,[3],< 18.4 pM
same,koff,[3],< 1e-05 s⁻¹
same,kon,[3],541000 M⁻¹ s⁻¹
same,kon,[4],360000 M⁻¹ s⁻¹

# — patent US20100310573A1 (Kyowa Kirin, published 2010)
